From publication PMC10802681, “Structures of the essential efflux pump EfpA from Mycobacterium tuberculosis reveal the mechanisms of substrate transport and small-molecule inhibition” (Research Square, 2024) come the findings set out here.

The data set “cryo-EM structure” deals with the molecule itself. Kind of data set: cryo-EM structure.
Data set [1] deals with the molecule itself. Kind of data set: SEC + other: negative-stain EM.

Positions count from the first letter of the chain named. Names and notes keep the numbering of the source.

B1: MtEfpA (EfpA from Mycobacterium tuberculosis), wild type, with C-terminal GFP and Strep-Tag II (natural protein)
chain: MTALNDTERAVRNWTAGRPHRPAPMRPPRSEETASERPSRYYPTWLPSRSFIAAVIAIGGMQLLATMDSTVAIVALPKIQNELSLSDAGRSWVITAYVLTFGGLMLLGGRLGDTIGRKRTFIVGVALFTISSVLCAVAWDEATLVIARLSQGVGSAIASPTGLALVATTFPKGPARNAATAVFAAMTAIGSVMGLVVGGALTEVSWRWAFLVNVPIGLVMIYLARTALRETNKERMKLDATGAILATLACTAAVFAFSIGPEKGWMSGITIGSGLVALAAAVAFVIVERTAENPVVPFHLFRDRNRLVTFSAILLAGGVMFSLTVCIGLYVQDILGYSALRAGVGFIPFVIAMGIGLGVSSQLVSRFSPRVLTIGGGYLLFGAMLYGSFFMHRGVPYFPNLVMPIVVGGIGIGMAVVPLTLSAIAGVGFDQIGPVSAIALMLQSLGGPLVLAVIQAVITSRTLYLGGTTGPVKFMNDVQLAALDHAYTYGLLWVAGAAIIVGGMALFIGYTPQQVAHAQEVKEAIDAGEL
notes: Forms an antiparallel dimer in LMNG-CHS; predominantly monomeric in DDM-CHS; No tag cleavage is described; also called MtEfpA-cGFP; MtEfpA-GFP; not shown: GFP, C-terminal, kept
The term stoichiometry N denotes a count of units in the complex or per binding partner. With B1, the “stoichiometry N” value in the data set “cryo-EM structure” came to 2.

B2: MtEfpA T324D mutant (natural protein)
chain: B1 chain with T324D
For B2, the binding result in data set [1] is recorded as “binds”.

B3: MtEfpA G377D mutant (natural protein)
chain: B1 chain with G377D
On to B3, for which the binding result in data set [1] is reported as “binds”.

B4: MtEfpA L195D mutant (natural protein)
chain: B1 chain with L195D
Turning to B4, the binding result in data set [1] is on record as “binds”.

B5: MtEfpA G502D mutant (natural protein)
chain: B1 chain with G502D
With B5, the binding result in data set [1] was “binds”.
